# Data taken from patent US20080200654A1 (KIRIN PHARMA, published 2008).
# Positions count from the first letter of the chain named.
# B1: 125Q54AAAA (antibody, V domains shown)
# VH: EVQLLESGGGLVQPGGSLRLSCAASGFTFSSYAMSWVRQAPGKGLEWVSDISGSGGYTYYADSVKGRFTISRDNSKNTLYLQMNSLRAEDTAVYYCAKTGDGSGSYSPDSWGQGTLVTVSS
# VL: DIQMTQSPSSLSASVGDRVTITCRASQGISRWLAWYQQKPEKAPKSLIYAASSLQSGVPSRFSGSGSGTDFTLTISSLQPEDFATYYCQQYNSYPYTFGQGTKLEIK
# notes: Human IgG1 kappa antibody purified from the hybridoma (FERM BP-10105); also called 125Q54AAAA antibody
# B2: 125R5AAAA (antibody, V domains shown)
# VH: B1 VH with N77K, S110Y
# VL: B1 VL with R31S
# notes: Human IgG1 kappa antibody purified from the hybridoma (FERM BP-10103); also called 125R5AAAA antibody
# B3: 125Q47BA (antibody, V domains shown)
# VH: B1 VH with S35T, D101A
# VL: B1 VL with R31S
# notes: Human IgG1 kappa antibody purified from the hybridoma (FERM BP-10104); also called 125Q47BA antibody
# B4: 263A17 (antibody, V domains shown)
# VH: EVQLLESGGGLVQPGGSLRLSCAASGFTFSSYAMSWIRQAPGKGLEWVSAISASGGSTYYADSVKGRFTISRDNSKNTLYLQMNSLRAEDTAVYYCAKDRIVGATNYYYGMDVWGQGTTVTVSS
# VL: DIQMTQSPPSVSASVGDRVTITCRASQGISSWLAWYQHKPGKAPKLLIYGASSLQSGVPSRFSGSGSGTDFTLTISSLQPEDFATYYCQQANSFPITFGQGTRLEIK
# notes: Human IgG1 kappa antibody purified from the hybridoma; also called 263A17 antibody
# B5: 125M165DAAA (antibody, V domains shown)
# VH: QVQLVESGGGVVQPGRSLRLSCAASGFTFSYYGMHWVRQAPGKGLEWVAVIWYDGSNKYYADSVKGRFTISRDNSKKTLYLQMNSLRAEDTAVYYCARDGHSSGWGDFQHWGQGTLVTVSS
# VL: EIVLTQSPATLSLSPGERATLSCRASQSVSSSLAWYQQKPGQAPRLLIYDASNRATGIPARFSGSGSGTDFTLTISSLEPEDFAIYYCQQRSNWPPTFGQGTKVEIK
# notes: Human IgG1 kappa antibody purified from the hybridoma (FERM BP-10106); also called 125M165DAAA antibody
# B6: 125M96ABA (antibody, V domains shown)
# VH: QLQLQESGPGLVKPSETLSLTCTVSGGSISTSSYYWGWIRQPPGKGLEWIGTIYYNGSTYYSPSLKSRVSISVDTSKNQFSLKLSSVTAADTSVYYCARQGYDIKINIDVWGQGTTVTVSS
# VL: B5 VL with S32Y, D50V, I85V, P96L, Q100G
# notes: Human IgG1 kappa antibody purified from the hybridoma (FERM BP-10108); also called 125M96ABA antibody
# B7: 125N26F6AA (antibody, human IgG1, kappa, V domains shown)
# VH: QVQLVESGGGVVQPGRSLRLSCAASGFTFSHYGMHWVRQAPGKGLEWVALIWYDGSNKYYADSVKGRFTISRDNSKNTLYLQMNSLRAEDTAVYYCARDPLAAGTSYFDYWGQGTLVTVSS
# VL: EIVLTQSPDFQSVTPKEKVTITCRASQSIGSSLHWYQQKPDQSPKLLIKYASQSFSGVPSRFSGSGSGTDFTLTINSLEAEDAAAYYCHQSSSLPFTFGPGTKVDIKR
# notes: Human IgG1 kappa antibody purified from hybridoma 125N26F6AA (FERM BP-10109); also called 125N26F6AA antibody
# B8: 125M10AA (antibody, human IgG1, kappa, V domains shown)
# VH: QLQVQESGPGLVKPSETLSLICTVSGGSIRTSGYYWGWFRQPPGKGLEWIGTSHNSGSTYYNPSLKSRVTISVDTSKNQFSLKLNSVTAADTAVYYCARQGYDFKVNIDVWGQGTTVTVSS
# VL: EIVLTQSPATLSLSPGERATLSCRASQSVSSYLAWYQQKPGQAPRLLIYDASNRATGIPARFSGSGSGTDFTLTISSLEPEDFAVYYCQQRSNWPLTFGGGTKVEIKR
# notes: Human IgG1 kappa antibody purified from hybridoma 125M10AA (FERM BP-10107); also called 125M10AA antibody
# B9: rec263 (antibody, V domains shown)
# VH: B4 VH
# VL: B4 VL
# notes: also called rec263 antibody; rec263A1
# Target: T1, A33 antigen (full-length human A33) (human, UniProt Q99795 22-319)
# T1 construct: Class I cell membrane protein of the Ig superfamily; also called GPA33; human A33 antigen
# T1 sequence: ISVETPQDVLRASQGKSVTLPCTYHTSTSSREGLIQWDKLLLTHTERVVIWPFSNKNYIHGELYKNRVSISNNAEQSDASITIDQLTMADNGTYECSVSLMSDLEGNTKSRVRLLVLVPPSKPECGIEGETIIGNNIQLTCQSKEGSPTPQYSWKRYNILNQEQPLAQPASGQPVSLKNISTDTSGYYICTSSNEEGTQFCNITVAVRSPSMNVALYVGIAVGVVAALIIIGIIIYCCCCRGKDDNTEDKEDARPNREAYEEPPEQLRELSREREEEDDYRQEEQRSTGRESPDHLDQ
# Test: FCM on LS174T cells; grade = ng/ml to reach half MFI 125 (+++ 10<=x<100, ++ 100<=x<1000, + 1000<=x<10000)
# Text: (§1) The reactivity of each type of purified monoclonal antibody obtained in Example 8 to A33-antigen-expressing human colorectal cancer cell line COLO205 cells, LoVo cells (ATCC No. CCL-229), LS174T cells (ATCC No. CL-188), and NCI-H508 cells (ATCC No. CCL-253) was examined by FCM. Human colorectal cancer cell line HT-29 cells (ATCC No. HTB-38) expressing no A33 antigen were also examined as negative control cells. Each cell line was suspended at a concentration of 2×10⁶/ml in a PBS Staining Buffer (SB) containing 0.1% NaN₃ and 2% FCS. The cell suspension (50 μl/well) was dispensed in a 96-well round bottom plate (produced by Becton, Dickinson and Company). 50 μl of each type of purified monoclonal antibody (adjusted using SB at a concentration of 2000, 400, 80, or 16 ng/ml) was added, and then incubation was performed on ice for 30 minutes. A negative control was prepared depending on each subclass. Specifically, a human IgG1 antibody (produced by Sigma) was adjusted using SB at a concentration of 2000, 400, 80, or 16 ng/ml. 50 μl of the solution was added, followed by 30 minutes of incubation on ice. The resultant was washed twice with SB and then 50 μl of an FITC fluorescence-labeled goat anti-human IgG F(ab′)₂ antibody (produced by Southern Biotech), followed by 30 minutes of incubation on ice. The resultant was washed once with SB and then the resultant was suspended in 300 μl of a FACS buffer. The mean fluorescence intensity of each cell line was measured by FACS (FACScan produced by Becton, Dickinson and Company).
# (§2) For COLO205 cells, the half value of the mean fluorescence intensity was determined to be 90. For LoVo cells, the half value of the mean fluorescence intensity was determined to be 25. […] When an antibody concentration required to reach such value was 10<=x<100 ng/ml, the reactivity was represented by +++, when the same was 100<=x<1000 ng/ml, the reactivity was represented by ++, and when the same was 1000<=x<10000 ng/ml, the reactivity was represented by +. When no binding was observed, the reactivity was represented by −.
row,Binder,antibody concentration required to reach half value of mean fluorescence intensity
1,B1,100 to 1000 ng/mL
2,B2,100 to 1000 ng/mL
3,B3,100 to 1000 ng/mL
4,B4,100 to 1000 ng/mL
5,B5,100 to 1000 ng/mL
6,B6,100 to 1000 ng/mL
7,B7,100 to 1000 ng/mL
8,B8,10 to 100 ng/mL

# Target: T1, A33 antigen (full-length human A33)
# Test: FCM competition on COLO205 cells as in Example 10; competitor mouse anti-A33 antibody
# Method: (§3) Whether or not each type of purified monoclonal antibody obtained in Example 8 recognizes an epitope similar to that of the mouse anti-A33 antibody was examined by a competition test using FCM. The COLO205 cell line was suspended at a concentration of 2×10⁶/ml in a PBS Staining Buffer (SB) containing 0.1% NaN₃ and 2% FCS. The cell suspension (50 μl/well) was dispensed in a 96-well round bottom plate (produced by Becton, Dickinson and Company). The purified mouse anti-A33 antibody prepared in Example 1 was not added or added at a concentration of 100 μg/ml to the wells containing each type of purified monoclonal antibody (1 μg/ml and 50 μl), followed by 30 minutes of incubation on ice. A mouse negative control (containing no purified anti-A33 antibody added thereto) was prepared as follows. A human IgG1 antibody (produced by Sigma) was adjusted at a concentration of 1 μg/ml with SB and then 50 μl of the solution was added, followed by 30 minutes of incubation on ice. The resultant was washed twice with SB and then 50 μl of FITC fluorescence-labeled goat anti-human IgG F(ab′)₂ antibody (produced by IBL) was added, followed by 30 minutes of incubation on ice. The resultant was washed once with SB and then the resultant was suspended in 300 μl of a FACS buffer. The mean fluorescence intensity of each cell line was measured by FACS (FACScan produced by Becton, Dickinson and Company). The inhibition (%) between each type of purified monoclonal antibody and the mouse A33 antibody was calculated by the following formula: […]
row,Binder,Inhibition (%)
1,B9,15.3%

# Target: T1, A33 antigen (full-length human A33)
# Test: FCM on LoVo cells; grade = ng/ml to reach half MFI 25 (+++ 10<=x<100, ++ 100<=x<1000, + 1000<=x<10000)
# Text: as §1, §2
row,Binder,antibody concentration required to reach half value of mean fluorescence intensity
1,B1,10 to 100 ng/mL
2,B2,10 to 100 ng/mL
3,B3,10 to 100 ng/mL
4,B4,100 to 1000 ng/mL
5,B5,10 to 100 ng/mL
6,B6,10 to 100 ng/mL
7,B7,10 to 100 ng/mL
8,B8,10 to 100 ng/mL

# Target: T1, A33 antigen (full-length human A33)
# Test: FCM on LS174T cells; grade = ng/ml to reach half MFI 100 (+++ 10<=x<100, ++ 100<=x<1000, + 1000<=x<10000)
row,Binder,antibody concentration required to reach half value of the mean fluorescence intensity
1,B9,100 to 1000 ng/mL

# Target: T1, A33 antigen (full-length human A33)
# Test: FCM on NCI-H508 cells; grade = ng/ml to reach half MFI 125 (+++ 10<=x<100, ++ 100<=x<1000, + 1000<=x<10000)
# Text: as §1, §2
row,Binder,antibody concentration required to reach half value of mean fluorescence intensity
1,B1,100 to 1000 ng/mL
2,B2,100 to 1000 ng/mL
3,B3,100 to 1000 ng/mL
4,B4,100 to 1000 ng/mL
5,B5,100 to 1000 ng/mL
6,B6,100 to 1000 ng/mL
7,B7,100 to 1000 ng/mL
8,B8,10 to 100 ng/mL

# Target: T1, A33 antigen (full-length human A33)
# Test: FCM competition on COLO205 cells; antibody 1 µg/ml, competitor mouse anti-A33 antibody 100 µg/ml
# Method: as §3
row,Binder,Inhibition (%)
1,B1,46.5%
2,B2,63.9%
3,B3,64.1%
4,B4,3.7%
5,B5,96%
6,B6,22.8%
7,B7,98%
8,B8,5%

# Target: T1, A33 antigen (full-length human A33)
# Test: FCM on NCI-H508 cells; grade = ng/ml to reach half MFI 175 (+++ 10<=x<100, ++ 100<=x<1000, + 1000<=x<10000)
row,Binder,antibody concentration required to reach half value of the mean fluorescence intensity
1,B9,100 to 1000 ng/mL

# Target: T1, A33 antigen (full-length human A33)
# Test: FCM on COLO205 cells; grade = ng/ml to reach half MFI 45 (+++ 10<=x<100, ++ 100<=x<1000, + 1000<=x<10000)
row,Binder,antibody concentration required to reach half value of the mean fluorescence intensity
1,B9,100 to 1000 ng/mL

# Target: T1, A33 antigen (full-length human A33)
# Test: FCM on COLO205 cells; grade = ng/ml to reach half MFI 90 (+++ 10<=x<100, ++ 100<=x<1000, + 1000<=x<10000)
# Text: as §1, §2
row,Binder,antibody concentration required to reach half value of mean fluorescence intensity
1,B1,10 to 100 ng/mL
2,B2,10 to 100 ng/mL
3,B3,10 to 100 ng/mL
4,B4,100 to 1000 ng/mL
5,B5,10 to 100 ng/mL
6,B6,10 to 100 ng/mL
7,B7,10 to 100 ng/mL
8,B8,10 to 100 ng/mL
